Assay results published in a protein production outcome set (Wang et al. 2014).

Experiment: label from the status in PepcDB records

Sequence	protein production
MSMKGISSAESDKLSRRISLTHKRNSEELDVFEAAVYFGYNEASSGDHGHTQKYGYNAAREENPRRWGILGGGRRISLDLPIRCSEQVYHLQQDHHEKHEVTTIKERLGNVRHKQPSSPGGKIASFLNSLFHQAGSKKNKSKSKSKTKPTDPEVEEEIPGGGWMRRRRRSSISHFFSSSRSTSTTTTTTASSSSKSLISSSSSGFRTPPPYLNTPTKNYKQFLNYTSATKQVGEEETKTNKEYSWLDEKLKVMESLSENQRIWSDDEDIDDDRRIKREGEDDGMESDSSSDLFELQNYELSRGGLPVYETTNVANINKTHI	failed
MEFSGRKWRKLRLAGDQRNASYPHCLQFYLQPPSENISLIEFENLAIDRVKLLKSVENLGVSYVKGTEQYQSKLESELRKLKFSYRENLEDEYEPRRRDHISHFILRLAYCQSEELRRWFIQQEMDLLRFRFSILPKDKIQDFLKDSQLQFEAISDEEKTLREQEIVASSPSLSGLKLGFESIYKIPFADALDLFRGRKVYLEDGFAYVPLKDIVAIILNEFRAKLSKALALTARSLPAVQSDERLQPLLNHLSHSYTGQDYSTQGNVGKISLDQIDLLSTKSFPPCMRQLHKALRENHHLRHGGRMQYGLFLKGIGLTLEQALQFWKQEFIKGKMDPDKFDKGYSYNIRHSFGKEGKRTDYTPFSCLKIILSNPPSQGDYHGCPFRHSDPELLKQKLQSYKISPGGISQILDLVKGTHYQVACQKYFEMIHNVDDCGFSLNHPNQFFCESQRILNGGKDIKKEPIQPETPQPKPSVQKTKDASSALASLNSSLEMDMEGLEDYFSEDS	failed
TPIINDPETVKLFLLTELQHEEREVFMVLFLDNQHRLIKKERLFLGTIYVSAVYPREIIKEALYCNAAALILAHNHPSGITEPSYSDQLITKKIQDAAELMEIRVLDHLIVGKSDCYSFAENCLL	failed
MLNSRRIVVVLPAYNAEKTLEMTYAEIPFEHVDHVLLVDDASRDRTAQVAERLGIKTIVHDRNKGYGANQKTCYRAALDLGADIVIMVHPDYQYTPKLITAMAAMIAYGEFDAVLGSRILGIGALKGGMPLYKYVANRVLTLVENLLLSHKLSEYHTGYRAFSRQVLEQLPLDANGDDFVFDNQMLAQIIWHGYRIGELSCPTKYFEDASSINFRRSVIYGLGVLGTALEFRLARMGLIRSGRFTPRNDQAAAQLEHHHHHH	not failed
MPYEMKFKGVYVLAMEDNSSFKGKIEVGDTVTGVDGKSFKSSEELMNYIKAQKVNQKVTVQFIQDGKAKEATGKLIELPTDKKAGIGIGLTDHTLEHHHHHH	not failed
MDEQVIFTTNTSGTIASVHSFEQINLRQCSTQSRNSCVQVGNKYLFIAQAQKALINVYNLSGSFKRESVEQRLPLPEILKCLEVVENDGVQYDRIQGVNHNLPDFNLPYLLLGSTESGKLYIWELNSGILLNVKPMAHYQSITKIKSILNGKYIITSGNDSRVIIWQTVDLVSASNDDPKPLCILHDHTLPVTDFQVSSSQGKFLSCTDTKLFTVSQDATIRCYDLSLIGSKKKQKANENDVSIGKTPVLLATFTTPYSIKSIVLDPADRACYIGTAEGCFSLNLFYKLKGNAIVNLLQSAGVNTVQKGRVFSLVQRNSLTGGENEDLDALYAMGQLVCENVLNSNVSCLEISMDGTLLLIGDTEGKVSIAEIYSKQIIRTIQTLTTSQDSVGEVTNLLTNPYRLERGNLLFEGESKGKQPSNNNGHNFMKIPNLQRVIFDGKNKGHLHDIWYQIGEPEAETDPNLALPLNDFNAYLEQVKTQESIFSHIGKVSSNVKVIDNKIDATSSLDSNAAKDEEITELKTNIEALTHAYKELRDMHEKLYEEHQQMLDKQ	failed
MGDSMSLDWDKLRIFHAAAEAGSFTHAADKLHLSQSAISRQVSSLEQDVGIKLFHRHARGLILTEQGEMLYRTAHDVLMKLESVKAQLSETTDKPSGKLRITTTVGLGQGWLTDKIQEFMSLYPEIQVQLILDNEELDVNMRHADCAIRLRQPQQSDLIQRKLFTVHMHVYAAPSYINKYGEPQSLDDLDNHRIITFGEPAPNYLLDVNWLEIAGRDSDNPRISHLQINSQTSIKRACLLGIGIAMLPDYIVGRDPGLIQLPISADIPSFDTYFCYPDELKNAAKLKVFRDYIVAKARNWNF	failed
MHTTSGRWGYGLFLALLTALLWGILPIKLKQVLQVVDPITVTWYRLLVSGGLLFAWLAAQRRLPSMRKLAPRGKGLVLVAVLGLMGNYVLYLIGLKLLSPGTAQLVVQIGPVLLLVASVFVFRERFSVGQGMGLLVLLAGFGLFFNQRLEELLTSLGTYTTGVLTILLATSIWVFYALSQKQLLTVWHSQQVMMVIYLSCAALLTPWVHPLEALQLTPVQGWLLLACCLNTLVAYGAFAEALAHWEASRVSATLALTPLVTFVAVALAAWVWPEYVHAEDINALGYVGAVTVVFGSALVALGPSLVTSWRARRERGQRAYSSEG	failed
